Patent US10472401B2, “Peptides and combination of peptides for use in immunotherapy against ovarian cancer and other cancers” (immatics biotechnologies GmbH, priority 2015, dated 2019)

biological target: HLA-A*02:01 (Homo sapiens, UniProt P04439, D140Y/D185E/D98H/E176V/E277Q/G131W/G231S/I119V/I121R/I166T/I218V/L300P/L318F/N151K/N90K/P208A/P217A/Q86G/Q94H/R138H/R169H/T345S); test: MHC binding assay (UV-ligand exchange, ELISA of stabilized MHC complexes); settings: MHC class I binding score; binding to HLA-A*02:01 ranged by peptide exchange yield (UV-ligand exchange, ELISA)
Summary of the method: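 Binding scored as exchange yield, detected via β2m of stabilized complexes in an HRP/TMB ELISA read at 450 nm after streptavidin capture of 100-fold diluted monomers for 1 h at 37 °C. Complexes came from UV irradiation cleaving a photolabile peptide, exchanged for the candidate.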

| Substance | Peptide exchange |
| --- | --- |
| 32 (KLDDLTQDLTV; listed as Homo sapiens) [compound 32] | ″++″ (≥20% = ++) |
| 144 (YIMEPSIFNTL; listed as Homo sapiens) [compound 144] | ″+++″ (≥50% = +++) |
| 41 (SLMPHIPGL; listed as Homo sapiens) [compound 41] | ″+++″ (≥50% = +++) |
| 240 (ILLEQAFYL; listed as Homo sapiens) [compound 240] | ″+++″ (≥50% = +++) |
| 257 (SIFSAFLSV; listed as Homo sapiens) [compound 257] | ″+++″ (≥50% = +++) |
| 237 (ALLEASGTLLL; listed as Homo sapiens) [compound 237] | ″++++″ (≥75% = ++++) |
| 188 (GLFPVTPEAV; listed as Homo sapiens) [compound 188] | ″+++″ (≥50% = +++) |
| 182 (MLLEAPGIFL; listed as Homo sapiens) [compound 182] | ″+++″ (≥50% = +++) |
| 80 (FLYDNLVESL; listed as Homo sapiens) [compound 80] | ″++″ (≥20% = ++) |
| 216 (NLWEDPYYL; listed as Homo sapiens) [compound 216] | ″+++″ (≥50% = +++) |
| 149 (NLLELFVQL; listed as Homo sapiens) [compound 149] | ″+++″ (≥50% = +++) |
| 271 (LVYPLELYPA; listed as Homo sapiens) [compound 271] | ″+++″ (≥50% = +++) |
| 159 (GLVGNPLPSV; listed as Homo sapiens) [compound 159] | ″++++″ (≥75% = ++++) |
| 120 (ALLGIPLTLV; listed as Homo sapiens) [compound 120] | ″+++″ (≥50% = +++) |
| 232 (ALLEAQDVELYL; listed as Homo sapiens) [compound 232] | ″++″ (≥20% = ++) |
| 282 (LLADVVPTT; listed as Homo sapiens) [compound 282] | ″+++″ (≥50% = +++) |

| Substance | Peptide exchange |
| --- | --- |
| 227 (ALMNTLLYL; listed as Homo sapiens) [compound 227] | ″++″ (≥20% = ++) |
| 278 (QLLDVVLTI; listed as Homo sapiens) [compound 278] | ″++″ (≥20% = ++) |
| 163 (ALDEMGDLLQL; listed as Homo sapiens) [compound 163] | ″+++″ (≥50% = +++) |
| 175 (YLFENISQL; listed as Homo sapiens) [compound 175] | ″+++″ (≥50% = +++) |
| 49 (YLPAVFEEV; listed as Homo sapiens) [compound 49] | ″+++″ (≥50% = +++) |
| 101 (ILVGGGALATV; listed as Homo sapiens) [compound 101] | ″+++″ (≥50% = +++) |
| 4 (GIMEHITKI; listed as Homo sapiens) [compound 4] | ″++++″ (≥75% = ++++) |
| 152 (ILFEDIFDV; listed as Homo sapiens) [compound 152] | ″+++″ (≥50% = +++) |
| 69 (FQLDPSSGVLVTV; listed as Homo sapiens) [compound 69] | ″+++″ (≥50% = +++) |
| 277 (LLPPLESLATV; listed as Homo sapiens) [compound 277] | ″++″ (≥20% = ++) |
| 7 (SLVGLLLYL; listed as Homo sapiens) [compound 7] | ″++++″ (≥75% = ++++) |
| 225 (SLLKVLPAL; listed as Homo sapiens) [compound 225] | ″+++″ (≥50% = +++) |
| 264 (SLQEQLHSV; listed as Homo sapiens) [compound 264] | ″+++″ (≥50% = +++) |
| 154 (ALDDGTPAL; listed as Homo sapiens) [compound 154] | ″++″ (≥20% = ++) |
| 102 (YLFESEGLVL; listed as Homo sapiens) [compound 102] | ″+++″ (≥50% = +++) |
| 185 (FLIDDKGYTL; listed as Homo sapiens) [compound 185] | ″++″ (≥20% = ++) |

More lines, now with the values ahead:

| Peptide exchange | Substance |
| --- | --- |
| ″+++″ (≥50% = +++) | 557 (KLYDDMIRL; listed as Homo sapiens) [compound 557] |
| ″+++″ (≥50% = +++) | 390 (ALFMKQIYL; listed as Homo sapiens) [compound 390] |
| ″++++″ (≥75% = ++++) | 585 (ALWDLAADKQTL; listed as Homo sapiens) [compound 585] |
| ″+++″ (≥50% = +++) | 485 (NVPDSFNEV; listed as Homo sapiens) [compound 485] |
| ″++″ (≥20% = ++) | 403 (KLYDRILRV; listed as Homo sapiens) [compound 403] |
| ″+++″ (≥50% = +++) | 573 (ILVANAIVGV; listed as Homo sapiens) [compound 573] |
| ″+++″ (≥50% = +++) | 635 (SLDSTLHAV; listed as Homo sapiens) [compound 635] |
| ″+++″ (≥50% = +++) | 506 (KLLGKVETA; listed as Homo sapiens) [compound 506] |
| ″+++″ (≥50% = +++) | 342 (HIYDKVMTV; listed as Homo sapiens) [compound 342] |
| ″+++″ (≥50% = +++) | 364 (LLQNEQFEL; listed as Homo sapiens) [compound 364] |
| ″+++″ (≥50% = +++) | 549 (AMLENASDIKL; listed as Homo sapiens) [compound 549] |
| ″++″ (≥20% = ++) | 491 (GLNDRSDAV; listed as Homo sapiens) [compound 491] |
| ″+++″ (≥50% = +++) | 285 (QLLHVGVTV; listed as Homo sapiens) [compound 285] |
| ″++++″ (≥75% = ++++) | 552 (GLLDLPFRVGV; listed as Homo sapiens) [compound 552] |
| ″+++″ (≥50% = +++) | 567 (SLLPLDDIVRV; listed as Homo sapiens) [compound 567] |
| ″++″ (≥20% = ++) | 379 (IMEGTLTRV; listed as Homo sapiens) [compound 379] |
| ″++″ (≥20% = ++) | 574 (YLLQEPPRTV; listed as Homo sapiens) [compound 574] |
| ″+++″ (≥50% = +++) | 605 (KLYEAVPQL; listed as Homo sapiens) [compound 605] |
| ″+++″ (≥50% = +++) | 564 (TVTNAVVTV; listed as Homo sapiens) [compound 564] |
| ″+++″ (≥50% = +++) | 507 (KLIDDQDISISL; listed as Homo sapiens) [compound 507] |
| ″++″ (≥20% = ++) | 453 (KLLEATSAV; listed as Homo sapiens) [compound 453] |
| ″++++″ (≥75% = ++++) | 337 (HLLSELEAAPYL; listed as Homo sapiens) [compound 337] |
| ″+++″ (≥50% = +++) | 287 (FLNEFFLNV; listed as Homo sapiens) [compound 287] |
| ″+++″ (≥50% = +++) | 515 (LLQELVLFL; listed as Homo sapiens) [compound 515] |
| ″+++″ (≥50% = +++) | 528 (SVAEGRALMSV; listed as Homo sapiens) [compound 528] |
| ″++++″ (≥75% = ++++) | 321 (GLFEDVTQPGILL; listed as Homo sapiens) [compound 321] |
